Assay results from patent US9486502B2, “Methods of administering interferon gamma to absorb fluid from the subretinal space” (The United States of America, as represented by the …, priority 2008, dated 2016).
“Also recorded” adds a separate entry of the source.

Legend:
Assay type in all cases: cell-based, human
hfRPE = test: quantitative real-time PCR of gene expression in IFNγ-treated hfRPE; conditions: for Threshold Cycle (Ct) CFTR / Threshold Cycle (Ct) IFNGR1 / Threshold Cycle (Ct) IFNGR2 / Threshold Cycle (Ct) IRF-1 / Threshold Cycle (Ct) IRF-2 / Threshold Cycle (Ct) PIAS1 / Threshold Cycle (Ct) SOCS3 / Threshold Cycle (Ct) STAT1 / Threshold Cycle (Ct) NOS2A / Threshold Cycle (Ct) IRF-8: IFNγ 25 ng/ml
Procedure: qRT-PCR was performed as previously described in Li, R. et al., 2007, Invest Ophthalmol Vis Sci, 48, 5722-5732—incorporated by reference in its entirety herein. Confluent monolayers of hfRPE cultured in 24-well plates were treated with IFNγ (25 ng/ml) in SFM and harvested at 0 minutes, 30 minutes, 2 hours, 6 hours, 15 hours and 24 hours, in triplicate for each time point. 1 μg total mRNA isolated from the harvested cells (RNeasy Kit, Qiagen) was reverse-transcribed (SuperScript® III First-Strand Synthesis System for RT-PCR, Invitrogen). Real-time PCR (TagMan®, Applied Biosystems) was used to quantify expression of the interferon regulatory factors IRF-1, IRF-2, and IRF-8; signal transducer and activator of transcription 1 (STAT1); suppressor of cytokine signaling 3 (SOCS3); protein inhibitor of activated STAT1 (PIAS1); inducible nitric oxide synthase (NOS2A); IFNγ receptor subunit R1 (IFNGR1); IFNα receptor subunit R1 (IFNAR1); IFNγ receptor subunit R2 (IFNGR2); cystic fibrosis transmembrane conductance regulator (CFTR); and Glyceraldehyde 3-phosphate dehydrogenase (GAPDH). The mRNA concentration of each gene was normalized against GAPDH. qRT-PCR was performed on the ABI Sequence Detection System 7900 (Applied Biosystems).

hfRPE cells [1] = test: JC-1 staining of mitochondrial membrane potential
Procedure: Mitochondrial membrane potential change (w) was assessed in live hfRPE cells using the lipophilic cationic probe 5,5′,6,6′-tetrachloro-1,1′3,3′-tetraethylbenzimidazol-carbocyanine iodide (JC-1) following the manufacturer's instructions and as described in Voloboueva, L. A., et al., Invest Ophthalmol Vis Sci, 2005, 46, 4302-4310, incorporated herein by reference in its entirety. Confluent monolayers of hfRPE were treated with different concentrations of IFNγ (0.5, 5, 50 ng/ml) for 24, 48, or 72 hours and then incubated with JC-1 solution for 30 minutes at 37° C. Fluorescence was evaluated with a Zeiss Axiovert 25 inverted microscope.

hfRPE cells [2] = test: BrdU incorporation assay, hfRPE proliferation
Procedure: BrdU incorporation was performed as described in Li, R. et al., 2007, Invest Ophthalmol Vis Sci, 48, 5722-5732, incorporated by reference in its entirety herein. IFNγ, TNFα, and IL-1β were obtained from Peprotech, Rocky Hill, N.J., and Universal Type I Interferon (cat: 11200-1) or human interferon beta la were from PBL biomedical laboratories (New Brunswick, N.J.). Cumulative effects were measured by adding VEGF165, EGF and bFGF (Peprotech), and PDGF-BB (R & D Systems) with IFNγ. Anti-human IFNγ R1 blocking antibody (R & D Systems, Minneapolis, Minn.), JAK inhibitor I, AG490, or JAK3 inhibitor II (EMD Biosciences, Gibbstown, N.J.) was added to the cells one hour prior to the addition of IFNγ. SFM was used as the negative control and SFM supplemented with 5% serum was used as positive control. After treatment for 48 hours, RPE cells were incubated with BrdU for 24 hours. The proliferation rate was evaluated using a Cell proliferation ELISA BrdU Kit (Roche, Ind.). Quadruplicate wells were used for each condition and the experiments were repeated at least two times using cell cultures from different donors. Cell viability was evaluated using a Live/Dead Viability/Cytotoxicity Kit (Invitrogen).

B1: IFNγ: pleiotropic cytokine produced by T- and NK-cells; obtained from Peprotech (protein, UniProt P01579 24-161, looked up)
Interferon gamma: QDPYVKEAENLKKYFNAGHSDVADNGTLFLGILKNWKEESDRKIMQSQIVSFYFKLFKNFKDDQSIQKSVETIKEDMNVKFFNSNKKKRDDFEKLTNYSVTDLNVQRKAIHELIQVMAELSPAAKTGKRKRSQMLFRG
hfRPE; 25 ng/ml IFNγ, hfRPE
  IRF-2 mRNA fold change: 3 fold
  up-regulation of IRF-1 transcription: > 400 fold
  up-regulation of STAT1 transcription: > 30 fold
hfRPE; 0 hr
  Threshold Cycle (Ct) CFTR: 38.0
  Threshold Cycle (Ct) IFNGR1: 26.4
  Threshold Cycle (Ct) IFNGR2: 26.0
  Threshold Cycle (Ct) IRF-1: 31.1
  Threshold Cycle (Ct) IRF-2: 27.6
  Threshold Cycle (Ct) PIAS1: 27.0
  Threshold Cycle (Ct) SOCS3: 26.9
  Threshold Cycle (Ct) STAT1: 26.2
hfRPE; 0.5 hr
  Threshold Cycle (Ct) CFTR: 36.9
  Threshold Cycle (Ct) IFNGR1: 26.4
  Threshold Cycle (Ct) IFNGR2: 26.0
  Threshold Cycle (Ct) IRF-1: 27.4
  Threshold Cycle (Ct) IRF-2: 27.6
  Threshold Cycle (Ct) NOS2A: 39.1
  Threshold Cycle (Ct) PIAS1: 26.9
  Threshold Cycle (Ct) SOCS3: 25.4
  Threshold Cycle (Ct) STAT1: 25.8
hfRPE; 2 hr
  Threshold Cycle (Ct) CFTR: 37.3
  Threshold Cycle (Ct) IFNGR1: 26.4
  Threshold Cycle (Ct) IFNGR2: 25.1
  Threshold Cycle (Ct) IRF-1: 22.2
  Threshold Cycle (Ct) IRF-2: 26.0
  Threshold Cycle (Ct) IRF-8: 30.9
  Threshold Cycle (Ct) NOS2A: 35.9
  Threshold Cycle (Ct) PIAS1: 27.2
  Threshold Cycle (Ct) SOCS3: 24.6
  Threshold Cycle (Ct) STAT1: 22.1
hfRPE; 6 hr
  Threshold Cycle (Ct) CFTR: 38.5
  Threshold Cycle (Ct) IFNGR1: 26.3
  Threshold Cycle (Ct) IFNGR2: 24.7
  Threshold Cycle (Ct) IRF-1: 22.3
  Threshold Cycle (Ct) IRF-2: 25.6
  Threshold Cycle (Ct) IRF-8: 31.1
  Threshold Cycle (Ct) NOS2A: 31.6
  Threshold Cycle (Ct) PIAS1: 27.1
  Threshold Cycle (Ct) SOCS3: 24.0
  Threshold Cycle (Ct) STAT1: 21.0
hfRPE; 15 hr
  Threshold Cycle (Ct) IFNGR1: 26.5
  Threshold Cycle (Ct) IFNGR2: 25.1
  Threshold Cycle (Ct) IRF-1: 22.3
  Threshold Cycle (Ct) IRF-2: 26.0
  Threshold Cycle (Ct) IRF-8: 32.0
  Threshold Cycle (Ct) NOS2A: 32.7
  Threshold Cycle (Ct) PIAS1: 26.8
  Threshold Cycle (Ct) SOCS3: 24.8
  Threshold Cycle (Ct) STAT1: 21.3
hfRPE; 24 hr
  Threshold Cycle (Ct) CFTR: 37.9
  Threshold Cycle (Ct) IFNGR1: 26.3
  Threshold Cycle (Ct) IFNGR2: 25.2
  Threshold Cycle (Ct) IRF-1: 22.2
  Threshold Cycle (Ct) IRF-2: 26.1
  Threshold Cycle (Ct) IRF-8: 31.9
  Threshold Cycle (Ct) NOS2A: 33.5
  Threshold Cycle (Ct) PIAS1: 26.7
  Threshold Cycle (Ct) SOCS3: 24.9
  Threshold Cycle (Ct) STAT1: 21.2
hfRPE; IFNγ-treated hfRPE
  SOCS3 mRNA levels: increased
  effect on CFTR mRNA expression: No effect; also recorded: small decrease
  effect on IFNGR1 expression: No effect
  effect on PIAS1 expression: No effect; also recorded: does not affect
  increase of SOCS3 mRNA: 7 fold
hfRPE; after 2 hours of IFNγ, constitutive level under detection
  IRF-8 mRNA detectability: became detectable
hfRPE; after 6 hours of IFNγ
  increase in IFNGR2 expression: ≈ 2 fold
hfRPE; after 6 hours of IFNγ, constitutive levels undetectable
  NOS2A expression: significantly up-regulated
hfRPE cells [1]; 24 or 48 hour time points
  mitochondrial membrane potential (JC-1): no significant differences
hfRPE cells [1]; IFNγ 0.5, 5, 50 ng/ml, 72 hours
  mitochondrial membrane potential (JC-1 aggregate fluorescence): dose-dependent decrease
hfRPE cells [2]; 0.5-80 ng/ml
  effect on hfRPE proliferation (BrdU incorporation): strong inhibitory effect
hfRPE cells [2]; IFNγ 5 ng/ml
  effect on hfRPE proliferation induced by bFGF, PDGF-BB, VEGF: significantly inhibited
hfRPE cells [2]; IFNγ alone 5 ng/ml, 5% FBS or 0% FBS
  effect on hfRPE cell proliferation: significantly inhibited
hfRPE cells [2]; other experiments, data not shown
  concentration as low as which hfRPE proliferation was inhibited: 0.02 ng/mL
